Source: US20250066436A1

Legend:
[1] = molecular target: AP-PAR1 (PAR1 with an N-terminal alkaline phosphatase tag) (UniProt P25116)
[2] = molecular target: endothelial cell protein C receptor (EPCR) (human) (UniProt Q9UNN8); experiment: binding to EPCR on endothelial cells; reference is wild type
[3] = molecular target: endothelial cell protein C receptor (EPCR) (human) (UniProt Q9UNN8); experiment: binding to EPCR on endothelial cells; reference is wild type APC
[4] = molecular target: endothelial cell protein C receptor (EPCR) (human) (UniProt Q9UNN8); experiment: binding to EPCR; reference is the natural ligands of EPCR
[5] = molecular target: PAR1^WT/β-11 (PAR1 with the GFP 11th β-strand fused to its C-terminus) (UniProt P25116); experiment: cell-based or functional assay
[6] = molecular target: endothelial cell protein C receptor (EPCR) (human) (UniProt Q9UNN8); experiment: cell-based or functional assay
[7] = molecular target: endothelial cell protein C receptor (EPCR) (human) (UniProt Q9UNN8); experiment: flow cytometry, labelled active-site blocked protease on endothelial cells
[8] = molecular target: endothelial cell protein C receptor (EPCR) (human) (UniProt Q9UNN8); experiment: flow cytometry, fluorescently labelled protease on endothelial cells
[9] = molecular target: T1, AP-PAR1 (PAR1 with an N-terminal alkaline phosphatase tag), P25116
T1 chain: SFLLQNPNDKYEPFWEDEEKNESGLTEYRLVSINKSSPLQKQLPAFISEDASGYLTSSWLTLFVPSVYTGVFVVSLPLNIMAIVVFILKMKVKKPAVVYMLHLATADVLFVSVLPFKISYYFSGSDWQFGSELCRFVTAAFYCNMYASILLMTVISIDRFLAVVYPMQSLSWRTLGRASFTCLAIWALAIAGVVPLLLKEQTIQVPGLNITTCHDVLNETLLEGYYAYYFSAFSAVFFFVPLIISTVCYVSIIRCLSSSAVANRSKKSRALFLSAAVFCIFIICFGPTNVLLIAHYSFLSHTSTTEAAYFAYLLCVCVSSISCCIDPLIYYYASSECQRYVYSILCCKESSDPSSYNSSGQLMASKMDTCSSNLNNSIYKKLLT

Sequence of UniProt Q9UNN8 (Q9UNN8 18-238): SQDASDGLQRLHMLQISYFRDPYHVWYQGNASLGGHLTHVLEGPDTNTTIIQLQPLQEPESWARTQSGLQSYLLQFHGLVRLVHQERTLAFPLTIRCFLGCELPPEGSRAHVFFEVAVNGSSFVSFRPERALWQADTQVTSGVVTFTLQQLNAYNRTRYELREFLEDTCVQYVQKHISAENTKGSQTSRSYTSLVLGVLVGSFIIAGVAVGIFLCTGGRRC

## wild type activated protein C (APC), proteolytically active
[1]
  PAR1 proteolysis (release of alkaline phosphatase tag into the supernatant): APC^CIDR cleaves PAR1 with comparable activity as APC

## APC^CIDRα1.4 (truncated human activated protein C fused to the PfEMP1 CIDRα1.4 HB3var03 domain), proteolytically active (enzyme)
[2]
  fold increase in affinity compared to wild type: > 100 fold
[3]
  fold enhanced affinity compared to wild type APC: < 100 fold
[4]
  fold higher affinity than its natural ligands: < 100 fold
[5]
  β-arrestin 2 recruitment to PAR1 (GFP formation by flow cytometry): > 2 fold
[6]
  β-arrestin 2 recruitment to activated PAR1 in HEK 293T β-arrestin 2 reporter cells: 3 fold

## P-APC^CIDR (APC^CIDRα1.4 active-site blocked with biotinylated PPACK) (enzyme)
[7]
  concentration at which cell binding was still clearly visible: < 0.3 nM
[8]
  lowest concentration tested at which bound protease was present: 0.1 nM

B1: APC^CIDRα1.4 (truncated human activated protein C fused to the PfEMP1 CIDRα1.4 HB3var03 domain), proteolytically active (protein)
chain: MRLAVGALLVCAVLGLCLPDCGVECKNETCTPKTVIYPDCGKNEKYEPPGDAKNTEINVINSGDKEGYIFEKLSEFCTNENNENGKNYEQWKCYYDNKKNNNKCKMEINIANSKLKNKITSFDEFFDFWVRKLLIDTIKWETELTYCINNTDVTDCNKCNKNCVCFDKWVKQKEDEWTNIMKLFTNKHDIPKKYYLNINDLFDSFFFQVIYKFNEGEAKWNELKENLKKQIASSKANNGTKDSEAAIKVLFNHIKEIATICKDNNTNEGCGDQCLVLPLEHPCASLCCGHGTCIDGIGSFSCDCRSGWEGRFCQREVSFLNCSLDNGGCTHYCLEEVGWRRCSCAPGYKLGDDLLQCHPAVKFPCGRPWKRMEKKRSHLKRDTEDQEDQVDPRLIDGKMTRRGDSPWQVVLLDSKKKLACGAVLIHPSWVLTAAHCMDESKKLLVRLGEYDLRRWEKWELDLDIKEVFVHPNYSKSTTDNDIALLHLAQPATLSQTIVPICLPDSGLAERELNQAGQETLVTGWGYHSSREKEAKRNRTFVLNFIKIPVVPHNECSEVMSNMVSENMLCAGILGDRQDACEGDSGGPMVASFHGTWFLVGLVSWGEGCGLLHNYGVYTKVSRYLDWIHGHIRDKEAPQKSWAP
[9]
  PAR1 proteolysis (release of alkaline phosphatase tag into the supernatant): APC^CIDR cleaves PAR1 with comparable activity as APC
